# Experiments:
# [1] = test system: SK-MEL-23 melanoma cell line; experiment: RIZ D283 allele transcript expression after demethylating agent; format: cell-based, human; details: 3 uM, cultured 3 to 6 days
# Description: RNA samples from the 20 heterozygous melanoma cell lines were sequenced to determine if both alleles were transcribed in the cell or if only one allele was transcribed (ie. monoallelic expression). Sequencing was performed on DNA products produced by reverse transcription-PCR (RT-PCR) amplification using specific RIZ primers. RT-PCR amplification was performed according to the manufacturer's instructions (GeneAmp RNA PCR kit; Perkin Elmer). A 640 bp fragment encoding RIZ exons 5-7 was obtained from transcription of 1 μg of total RNA using the SSO 82 primer (SEQ ID NO: 93) and PCR amplification using the SSO 24 primer (5′[…]3′; SEQ ID NO: 106) and the SSO 82 primer (SEQ ID NO: 93). The amplified fragment was gel purified and sequenced using primer SSO 82 and a CircumVent™ Thermal Cycle DNA Sequencing kit (New England Biolabs; Beverly Mass.). The sequencing products were analyzed on a […] sequencing gel.
# The SK-MEL-23 melanoma cell line was cultured for 3 to 6 days with 3 uM of the demethylating agent 5-azacytidine.
# [2] = target: T1, 56 kD fragment of Rb (Homo sapiens, UniProt P06400); experiment: binding of 35S-labeled RIZ fragments to 56 kD Rb, immunoprecipitation with anti-Rb antiserum
# T1 construct: p56 Rb: 56 kD fragment of Rb from a.a. position 379-928; made in house
# T1 sequence (P06400 379-928): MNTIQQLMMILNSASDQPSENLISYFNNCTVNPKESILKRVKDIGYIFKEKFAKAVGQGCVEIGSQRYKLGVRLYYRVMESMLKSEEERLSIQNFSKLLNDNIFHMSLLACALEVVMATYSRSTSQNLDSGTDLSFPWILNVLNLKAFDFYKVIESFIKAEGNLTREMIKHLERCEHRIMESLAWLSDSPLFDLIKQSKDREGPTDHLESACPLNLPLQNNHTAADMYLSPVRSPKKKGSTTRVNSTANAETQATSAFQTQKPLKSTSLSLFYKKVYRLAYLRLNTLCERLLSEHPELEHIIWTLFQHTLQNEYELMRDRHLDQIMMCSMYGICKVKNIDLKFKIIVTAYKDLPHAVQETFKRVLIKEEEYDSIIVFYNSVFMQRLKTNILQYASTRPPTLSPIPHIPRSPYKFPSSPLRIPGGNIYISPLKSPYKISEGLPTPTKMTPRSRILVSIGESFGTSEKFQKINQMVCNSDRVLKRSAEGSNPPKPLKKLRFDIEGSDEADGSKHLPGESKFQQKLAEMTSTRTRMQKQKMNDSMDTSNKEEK
# Description: To characterize the interaction between RIZ and Rb, a ^35S-labeled fragment of rat RIZ from amino acid position 245-883 (RIZ (245-883)) was produced by subcloning the 1.9 kb insert of clone 7.1 into PBKS+ (Stratagene) to yield plasmid pBKS+7.1. […] The larger size obtained by SDS-PAGE is likely due to anomalous mobility of the RIZ fragment on the gel.
# A 56 kD fragment of Rb produced by bacterial expression from p56Rb plasmid, as described previously (Huang et al., supra, 1991), was tested for binding to radiolabeled RIZ (245-883). Binding was detected by immunoprecipitation with an anti-Rb antiserum and Protein A-Sepharosew™ (Huang et al., supra, 1990), which is incorporated herein by reference; and Huang et al., supra, 1991) followed by SDS-PAGE and autoradiography (see Harlow and Lane, supra, 1988). The rabbit anti-Rb antiserum was produced to purified p56Rb using previously described methods (see Harlow and Lane, supra, 1988).
# The amount of binding of RIZ by Rb in the immunoprecipitation reaction was dependent on the concentration of Rb added. Full binding of ^35S-labeled RIZ (245-883) was achieved by 10 nM Rb but not 3.3 nM Rb (not shown). […]
# Binding between labeled RIZ (1-575) and the glycine mutant with 33 nM Rb was evaluated by immunoprecipitation with anti-Rb antiserum followed by SDS-PAGE and autoradiography.
# [3] = target: T2, Rb from HT1080 cell extract (Homo sapiens, UniProt P06400); experiment: GST-RIZ (215-462) glutathione-agarose pull-down of Rb from cell extract, anti-Rb immunoblot; format: binding; details: 4 μg GST-RIZ (215-462)
# T2 construct: endogenous in cells; host or cells: HT1080 cells (lysate)
# T2 sequence (P06400 1-928): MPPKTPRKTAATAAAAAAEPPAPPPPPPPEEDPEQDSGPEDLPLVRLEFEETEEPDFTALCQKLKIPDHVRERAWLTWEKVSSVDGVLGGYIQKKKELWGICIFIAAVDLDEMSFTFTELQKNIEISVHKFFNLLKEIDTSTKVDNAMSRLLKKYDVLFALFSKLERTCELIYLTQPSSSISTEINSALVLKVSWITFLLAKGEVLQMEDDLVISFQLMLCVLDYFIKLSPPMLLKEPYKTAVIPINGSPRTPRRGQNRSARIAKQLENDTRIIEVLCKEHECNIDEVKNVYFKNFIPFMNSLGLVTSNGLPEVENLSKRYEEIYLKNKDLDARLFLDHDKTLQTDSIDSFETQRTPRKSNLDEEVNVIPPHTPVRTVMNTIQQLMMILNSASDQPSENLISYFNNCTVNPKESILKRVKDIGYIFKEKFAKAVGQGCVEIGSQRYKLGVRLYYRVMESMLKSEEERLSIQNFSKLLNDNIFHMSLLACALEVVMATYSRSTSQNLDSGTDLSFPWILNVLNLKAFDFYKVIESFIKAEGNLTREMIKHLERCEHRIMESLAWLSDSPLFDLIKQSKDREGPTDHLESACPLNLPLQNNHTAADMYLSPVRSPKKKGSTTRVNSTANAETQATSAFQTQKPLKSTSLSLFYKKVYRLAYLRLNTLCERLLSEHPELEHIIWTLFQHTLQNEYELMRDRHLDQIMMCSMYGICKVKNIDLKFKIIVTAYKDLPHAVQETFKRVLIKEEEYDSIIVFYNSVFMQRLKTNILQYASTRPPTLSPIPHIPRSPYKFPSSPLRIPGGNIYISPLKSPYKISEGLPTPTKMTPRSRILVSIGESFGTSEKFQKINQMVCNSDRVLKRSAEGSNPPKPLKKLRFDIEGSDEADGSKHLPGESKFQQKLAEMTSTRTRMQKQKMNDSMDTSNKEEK
# Description: Rat RIZ was tested for binding to Rb in HT1080 cells (ATCC #ICCL 121). The cells were grown in DMEM supplemented with […]. Cells were lysed in ELB buffer (50 mM HEPES, pH 7.5, 250 mM NaCl, 0.1% NP-40) supplemented with 5 mM EDTA, 50 mM NaF, 1 mM Na orthovanadate, 1 mM of DTT, aprotinin, leupeptin, and PMSF. The lysate was cleared of cell debris by centrifugation at 12,000 rpm for 10 min in a microfuge.
# Binding between 4 μg GST-RIZ (215-462) and Rb from HT1080 cell extract was evaluated by first mixing the two, then binding GST-RIZ and any associated Rb to glutathione-agarose beads. The beads were washed in binding buffer and the bound complexes were eluted by boiling in SDS buffer and analyzed by immunoblotting with anti-Rb antiserum. Immunoblotting was performed by standard techniques (see, for example, Harlow and Lane, supra, 1988).
# [4] = target: T3, full length RIZ (Rattus norvegicus, UniProt Q63755); experiment: RIZ homo-oligomer formation; format: binding
# T3 construct: made in house; host or cells: in vitro translation (35S label; method not repeated for this protein)
# T3 sequence (Q63755 whole entry): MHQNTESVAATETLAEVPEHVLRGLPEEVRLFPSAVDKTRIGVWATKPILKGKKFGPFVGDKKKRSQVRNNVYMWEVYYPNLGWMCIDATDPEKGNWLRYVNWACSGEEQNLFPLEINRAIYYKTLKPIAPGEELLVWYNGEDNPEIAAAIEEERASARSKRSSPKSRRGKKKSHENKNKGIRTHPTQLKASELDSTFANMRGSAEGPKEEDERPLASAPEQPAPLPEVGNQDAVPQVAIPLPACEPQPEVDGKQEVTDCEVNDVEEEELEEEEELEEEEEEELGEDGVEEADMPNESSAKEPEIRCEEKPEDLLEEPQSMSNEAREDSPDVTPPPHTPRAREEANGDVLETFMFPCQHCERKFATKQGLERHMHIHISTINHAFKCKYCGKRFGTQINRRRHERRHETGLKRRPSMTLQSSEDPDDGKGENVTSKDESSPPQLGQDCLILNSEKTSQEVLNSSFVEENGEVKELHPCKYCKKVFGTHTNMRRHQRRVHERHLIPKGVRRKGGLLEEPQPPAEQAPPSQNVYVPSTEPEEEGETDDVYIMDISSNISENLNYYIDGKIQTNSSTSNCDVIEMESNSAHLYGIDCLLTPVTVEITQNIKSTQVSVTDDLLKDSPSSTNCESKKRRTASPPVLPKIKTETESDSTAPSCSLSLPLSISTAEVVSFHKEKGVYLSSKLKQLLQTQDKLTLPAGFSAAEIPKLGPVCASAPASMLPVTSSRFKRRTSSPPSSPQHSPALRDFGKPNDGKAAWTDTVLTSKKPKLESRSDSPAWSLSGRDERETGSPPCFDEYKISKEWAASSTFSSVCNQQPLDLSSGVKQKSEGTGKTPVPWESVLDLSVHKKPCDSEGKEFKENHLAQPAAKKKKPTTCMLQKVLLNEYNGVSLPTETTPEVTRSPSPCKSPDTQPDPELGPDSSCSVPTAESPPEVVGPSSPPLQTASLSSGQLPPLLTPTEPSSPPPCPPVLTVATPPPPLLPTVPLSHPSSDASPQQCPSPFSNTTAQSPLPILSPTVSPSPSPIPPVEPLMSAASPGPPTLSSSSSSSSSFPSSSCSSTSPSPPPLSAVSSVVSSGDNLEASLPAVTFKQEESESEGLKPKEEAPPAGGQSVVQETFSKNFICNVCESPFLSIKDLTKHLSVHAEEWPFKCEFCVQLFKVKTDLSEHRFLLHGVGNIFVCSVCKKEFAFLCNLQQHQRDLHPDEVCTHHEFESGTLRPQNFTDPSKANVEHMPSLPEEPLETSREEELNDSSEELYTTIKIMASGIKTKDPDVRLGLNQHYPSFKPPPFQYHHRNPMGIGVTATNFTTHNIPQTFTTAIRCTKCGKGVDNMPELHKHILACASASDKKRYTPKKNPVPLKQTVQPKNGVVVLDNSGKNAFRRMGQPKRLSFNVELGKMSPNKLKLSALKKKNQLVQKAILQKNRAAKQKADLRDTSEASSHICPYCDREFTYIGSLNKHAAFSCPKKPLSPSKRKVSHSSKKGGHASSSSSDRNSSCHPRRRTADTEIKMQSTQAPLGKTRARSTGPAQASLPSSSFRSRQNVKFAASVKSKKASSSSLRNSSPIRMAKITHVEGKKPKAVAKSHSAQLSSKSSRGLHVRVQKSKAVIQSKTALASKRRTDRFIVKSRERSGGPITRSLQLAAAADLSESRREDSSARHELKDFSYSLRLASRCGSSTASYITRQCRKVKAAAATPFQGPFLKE
molecule,measurement,setting,value
Nc1ncn([C@@H]2O[C@H](CO)[C@@H](O)[C@H]2O)c(=O)n1 [5-azacytidine],effect on reduced expression of RIZ D283 transcripts,[1],unaffected
RIZ (1-575): fragment of RIZ from amino acid position 1-575 (protein) MHQNTESVAATETLAEVPEHVLRGLPEEVRLFPSAVDKTRIGVWATKPILKGKKFGPFVGDKKKRSQVRNNVYMWEVYYPNLGWMCIDATDPEKGNWLRYVNWACSGEEQNLFPLEINRAIYYKTLKPIAPGEELLVWYNGEDNPEIAAAIEEERASARSKRSSPKSRRGKKKSHENKNKGIRTHPTQLKASELDSTFANMRGSAEGPKEEDERPLASAPEQPAPLPEVGNQDAVPQVAIPLPACEPQPEVDGKQEVTDCEVNDVEEEELEEEEELEEEEEEELGEDGVEEADMPNESSAKEPEIRCEEKPEDLLEEPQSMSNEAREDSPDVTPPPHTPRAREEANGDVLETFMFPCQHCERKFATKQGLERHMHIHISTINHAFKCKYCGKRFGTQINRRRHERRHETGLKRRPSMTLQSSEDPDDGKGENVTSKDESSPPQLGQDCLILNSEKTSQEVLNSSFVEENGEVKELHPCKYCKKVFGTHTNMRRHQRRVHERHLIPKGVRRKGGLLEEPQPPAEQAPPSQNVYVPSTEPEEEGETDDVYIMDISSNISENLNYYIDGKIQTNSSTS,binding to Rb in vitro (FIG. 4),[2],specifically binds
"GST-RIZ (215-462): purified rat RIZ (a.a. position 215-462) fused C-terminal to glutathionine S-transferase (protein, left off: a dimerising Fc or GST, purified rat RIZ (a.a. position 215-462) fused C-terminal to glutathionine S-transferase) PLASAPEQPAPLPEVGNQDAVPQVAIPLPACEPQPEVDGKQEVTDCEVNDVEEEELEEEEELEEEEEEELGEDGVEEADMPNESSAKEPEIRCEEKPEDLLEEPQSMSNEAREDSPDVTPPPHTPRAREEANGDVLETFMFPCQHCERKFATKQGLERHMHIHISTINHAFKCKYCGKRFGTQINRRRHERRHETGLKRRPSMTLQSSEDPDDGKGENVTSKDESSPPQLGQDCLILNSEKTSQEVLN",binding to Rb from HT1080 cell extract,[3],bound to the fastest migrating forms of Rb
same,binding to 35S-labeled full length RIZ (homo-oligomer formation),[4],lack of binding

# Reference: patent publication US6468985B1, “Retinoblastoma protein-interacting zinc finger proteins” (The Burnham Institute, priority 1994, dated 2002)
